{
  "source": "patent US20250002601A1",
  "about": "(INNATE PHARMA, published 2025)",
  "binders": {"B1": {"name": "CD20-1-T5-NKCE4-v3 (bispecific antibody)", "light": "not shown", "heavy": "not shown", "chain": "DIQMTQSPSSLSASVGDRVTITCRASQDISNYLNWYQQKPGKAPKLLIYYTSRLHSGVPSRFSGSGSGTDFTFTISSLQPEDIATYFCQQGNTRPWTFGGGTKVEIKASTKGPSVFPLAPSSKSTSGGTAALGCLVKDYFPEPVTVSWNSGALTSGVHTFPAVLQSSGLYSLSSVVTVPSSSLGTQTYICNVNHKPSNTKVDKRVEPKSCDKTHSGSSSSGSSSSGSSSSTKKTQLQLEHLLLDLQMILNGINNYKNPKLTAMLAKKFYMPKKATELKHLQCLEEELKPLEEVLNLAQSKNFHLRPRDLISNINVIVLELKGSETTFMCEYADETATIVEFLNRWITFCQSIISTLT"}, "B2": {"name": "CD20-2-T5-NKCE4-v3 (bispecific antibody)", "light": "not shown", "heavy": "not shown", "chain": "B1 chain"}, "B3": {"name": "CD20-3-T5-NKCE4-v3 (bispecific antibody)", "light": "not shown", "heavy": "not shown", "chain": "B1 chain"}, "B4": {"name": "CD20-4-T5-NKCE4-v3 (bispecific antibody)", "light": "not shown", "heavy": "not shown", "chain": "B1 chain"}, "B5": {"name": "CD20-2-T5A-NKCE4-v2 (bispecific antibody, human IgG1, kappa)", "chain 1": "not shown", "chain 2": "not shown", "chain 3": "B1 chain"}, "B6": {"name": "CD20-2-T6AB3-NKCE4-v2A (bispecific antibody, human IgG1, kappa)", "chain 1": "not shown", "chain 2": "EVQLVESGGGLVQPDRSLRLSCAASGFTFHDYAMHWVRQAPGKGLEWVSTISWNSGTIGYADSVKGRFTISRDNAKNSLYLQMNSLRAEDTALYYCAKDIQYGNYYYGMDVWGQGTTVTVSSASTKGPSVFPLAPSSKSTSGGTAALGCLVKDYFPEPVTVSWNSGALTSGVHTFPAVLQSSGLYSLSSVVTVPSSSLGTQTYICNVNHKPSNTKVDKRVEPKSCDKTHTCPPCPAPEAEGAPSVFLFPPKPKDTLMISRTPEVTCVVVDVSHEDPEVKFNWYVDGVEVHNAKTKPREEQYNSTYRVVSVLTVLHQDWLNGKEYKCKVSNKALPSSIEKTISKAKGQPREPQVYTLPPSREEMTKNQVSLTCLVKGFYPSDIAVEWESNGQPENNYKTTPPVLDSDGSFFLYSKLTVDKSRWQQGNVFSCSVMHEALHNHYTQKSLSLSPGSTGSQVQLVQSGAEVKKPGSSVKVSCKASGYTFSDYVINWVRQAPGQGLEWMGEIYPGSGTNYYNEKFKAKATITADKSTSTAYMELSSLRSEDTAVYYCARRGRYGLYAMDYWGQGTTVTVSSRTVAAPSVFIFPPSDEQLKSGTASVVCLLNNFYPREAKVQWKVDNALQSGNSQESVTEQDSKDSTYSLSSTLTLSKADYEKHKVYACEVTHQGLSSPVTKSFNRGEC", "chain 3": "B1 chain with A265T, C349A"}},
  "note": "Residue numbers refer to the chain shown, from its start. Numbers in names are those of the source.",
  "data": [
    {"target": "IL-2 receptor on cells of human PBMC (NK cells, CD4 T cells, CD8 T cells, Tregs)", "assay": "cell-based or functional assay", "units": {"% of pSTAT5+ cells among NK cells": "log"}, "values": [
      {"binder": "B1", "% of pSTAT5+ cells among NK cells": "~1"},
      {"binder": "B2", "% of pSTAT5+ cells among NK cells": "~1"},
      {"binder": "B3", "% of pSTAT5+ cells among NK cells": "~1"},
      {"binder": "B4", "% of pSTAT5+ cells among NK cells": "~1"}
    ]},
    {"target": "T1, HuCD122-His (human, UniProt P14784 27-239)", "T1 construct": "Captured on an anti-His CM5 chip; also called interleukin 2 receptor beta; IL2RP", "T1 sequence (looked up)": "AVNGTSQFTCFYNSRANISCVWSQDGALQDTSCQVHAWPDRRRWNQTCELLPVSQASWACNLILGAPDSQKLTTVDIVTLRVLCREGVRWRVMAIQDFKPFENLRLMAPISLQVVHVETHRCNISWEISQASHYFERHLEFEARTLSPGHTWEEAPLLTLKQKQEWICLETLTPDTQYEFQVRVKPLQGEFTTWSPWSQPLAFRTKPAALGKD", "assay": "SPR (Biacore), HuCD122-His captured on anti-His CM5 chip, analyte 31.25 nM to 1 µM, steady-state fit", "description": "Briefly, a biacore instrument was used with a CM5 chip comprising an immobilized anti-His antibody. Ligand HuCD122-His was injected at a dilution of […] to be captured on the chip. Proteins CD20-2-T5A-NKCE4-v2, CD20-2-T6AB3-NKCE4-v2A, CD20-2-T13A-NKCE4-v2A was then injected during 120 s with a flow of 10 μL/min, at a concentrations range from 31.25 nM to 1 μM. The interaction between these proteins and HuCD122-His was studied with a dissociation time of 600 s. The chip was then regenerated with NaOH 10 mM at a flow of 40 μL/min during 10 sec.\nDate has been analysed under the steady-state model, that seemed to be the most accurate regarding sensograms appearance.", "units": {"Kd": "nM"}, "values": [
      {"binder": "B5", "Kd": 1810},
      {"binder": "B6", "Kd": 2840}
    ]}
  ]
}
